Assays:
[1] = biological target: T1, stabilized pre-fusion RSV F glycoprotein (DS-Cav1) (Human respiratory syncytial virus A, …, stabilised); assay: cell-based or functional assay
[2] = biological target: T1, stabilized pre-fusion RSV F …; assay: SPR; Biacore T200; D25 antibody on Protein A chip captures 50 RU DS-Cav1; RB1 Fab flowed in two-fold dilutions 0.31-20 nM, 50 ul/min; 1:1 Langmuir fit; settings: both partners purified
[3] = biological target: T2, post-fusion RSV F glycoprotein (F∆FP) (Human respiratory syncytial virus A, …, stabilised); assay: SPR; Biacore T200; Synagis antibody on Protein A chip captures 50 RU post-fusion F; RB1 Fab flowed in two-fold dilutions 200-3.12 nM, 40 s dissociation; 1:1 Langmuir fit; settings: both partners purified
T2 construct: RSV fusion (F) glycoprotein, soluble post-fusion form F∆FP; post-fusion F structure PDB 3RRR; also called post-fusion F protein; RSV F post-Fusion; source: Expi293F, transfected, purified from culture supernatant (Ni-Sepharose, Strep-Tactin, thrombin digestion, Superdex 200)

Row | Binder | microneutralization of RSV A (Long) on HEp-2 cells, IC50 (F on the virus, strain Long) [1] [ng/mL] | microneutralization of RSV B (Washington) on HEp-2 cells, IC50 (F on the virus, subtype B strain) [1] [ng/mL] | Kd [2] [nM] | koff [2] [s⁻¹] | kon [2] [M⁻¹ s⁻¹] | Kd [3] [nM] | koff [3] [s⁻¹] | kon [3] [M⁻¹ s⁻¹]
1 | RB1, fully human IgG1 monoclonal antibody (antibody, V domains shown) VH: EVQLVESGGGLVRPGRSLRLSCTVSGFSFDDSAMSWVRQAPGKGLEWISFIKSKTYGGTKEYAASVKGRFTISRDDSKNIAYLQMNSLKTEDTAVYYCTRGAPYGGNSDYYYGLDVWGQGTTVTVSS VL: DIQMTQSPSSLSASVGDRVTITCRTSQDVRGALAWYQQKPGKAPKLLIFDASSLETGVPSRFSGSGSGTVFTLTISSLQPEDFAAYYCQQFLDFPFTFGQGTRLEIK | 2.9 | 1.7 |  |  |  |  |  | 
2 | RB1 fragment antigen-binding (Fab) (Fab, V domains shown, Fab heavy chain of RB1 (VH as the heavy chain of m1, plus CH1 of human IgG1 up to the cleavage site); light chain of RB1, as the light chain of m1; The preparation of the Fab is told for the crystallisation; also called RB1 Fab; monovalent RB1 Fab; source: RB1 mAb (CHO-3E7, Protein A purified) cleaved into monovalent Fab with the Fab Preparation Kit (Pierce)) VH: EVQLVESGGGLVRPGRSLRLSCTVSGFSFDDSAMSWVRQAPGKGLEWISFIKSKTYGGTKEYAASVKGRFTISRDDSKNIAYLQMNSLKTEDTAVYYCTRGAPYGGNSDYYYGLDVWGQGTTVTVSS VL: DIQMTQSPSSLSASVGDRVTITCRTSQDVRGALAWYQQKPGKAPKLLIFDASSLETGVPSRFSGSGSGTVFTLTISSLQPEDFAAYYCQQFLDFPFTFGQGTRLEIK |  |  | 0.022 | 0.000164 | 7.35e+06 | 135 | 0.15 | 1.12e+06

Reference: article PMC6742648, “A potent broadly neutralizing human RSV antibody targets conserved site IV of the fusion glycoprotein” (Nature Communications, 2019)
